Data: the supplement of paper PMC10567573

B1: PLAGL1 (parent)
chain: CKDFLCQFCAQRFGRKDHLTRHTK
B2: FCHO1 (parent)
chain: DKLALCHLELTRKLQDLIKDVLRY

Variants of: B1
Assay: protein stability index of a GFP-peptide fusion (GPS, HEK-293T) (PSI 1-6); higher = more stable
Conditions: c terminus: a fixed tail appended
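Further: lentivirally expressed fusions sorted by FACS into six bins by GFP to DsRed ratio, PSI derived from sequencing read proportions per bin multiplied by bin number.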

Protein stability index, by site and new letter:
D3: V 2.38 | K 1.48 | G 2.38 | W 1.73 | Q 2.76 | L 1.86 | R 1.81 | C 1.31 | P 1.73 | I 2.01 | F 3.19 | T 1.77 | N 1.56 | E 1.78 | M 1.38 | Y 2.11 | A 1.57 | H 2.07 | S 1.51
L5: H 1.89 | M 1.9 | Q 2.01 | C 1.41 | V 1.36 | G 2.23 | D 2.18 | E 2.07 | R 1.43 | K 2.08 | I 1.69 | N 2.23 | A 2.02 | F 2.56 | P 2.87 | S 2.41 | T 1.81
F4: N 2.64 | E 2.56 | M 2.21 | P 2.37 | H 1.58 | Q 2.34 | S 2.23 | A 2.05 | C 1.97 | D 1.76 | Y 1.36 | I 1.54 | K 2.41 | L 1.41 | G 2.02 | R 2.4 | V 1.27 | T 2.35
C1: F 1.64 | Q 2.11 | I 2.46 | H 2.02 | N 1.72 | T 1.76 | M 1.53 | P 2.2 | L 2.25 | K 2.11 | R 2.04 | V 1.67 | W 1.84 | G 1.93 | A 3.04 | S 2.7 | D 2.31 | Y 2.44
K2: T 2.09 | G 2.43 | Q 2.08 | S 1.74 | C 2.44 | M 1.46 | Y 2.05 | E 2.13 | P 2.52 | H 2.46 | V 1.53 | L 1.85 | F 2.35 | R 2.74 | W 1.7 | N 2.02 | I 1.78 | A 1.7 | D 2.02

Variants of: B2
Assay: as above
Conditions: c terminus: a fixed tail appended

Protein stability index, by site and new letter:
I18: R 2.76 | H 2.12 | N 2.4 | T 2.02 | G 2.33 | Q 1.73 | P 2.11 | K 3.16 | Y 2.52 | S 2.6 | M 2.05
K19: N 2.69 | I 2.33 | H 2.18 | A 1.17 | G 2.29 | C 2.7 | M 2.52 | R 2.22 | Y 2.43 | F 1.66 | D 1.78 | E 2.16 | P 2.36 | Q 1.36 | S 1.71
V21: D 1.43 | N 2.02 | R 2 | Y 2.3 | E 2.24 | H 3.97 | P 2.13 | F 2.25 | S 1.83 | T 2.53 | I 2.97 | G 2.84
Y24: N 2.43 | K 2.3 | S 1.04 | C 2.92 | G 2.98 | E 3.6 | P 1.99 | T 2.26
L22: K 1.65 | P 3.16 | D 2.32 | T 1.05 | E 2.67 | G 1.68 | N 1.47 | A 2.73 | S 2.44 | Q 2.92 | M 2.35
R23: A 3.49 | I 1.47 | D 2.08 | Q 3.15 | L 2.59 | C 3.57 | P 1.2
D20: N 4.79 | M 1.9 | P 2.52 | G 3.57 | L 2.19 | Y 2.3 | V 2.67 | F 1.87 | K 1.71 | C 1.11 | I 2.16 | W 2.4
